Experiments:
[1] = substrate: CC#CC(=O)C(=O)O; assay: spectrophotometric hydration assay; assay type: biochemical, Corynebacterium glutamicum; settings: 20 mM Na2HPO4 pH 9.0, 23 °C
purified protein [2] = substrate: O=C(O)/C=C/Cl; assay: purified protein; settings: 20 mM Na2HPO4 pH 9.0, 22 °C
purified protein [3] = substrate: O=C(O)/C=C\Cl; assay: purified protein; settings: 20 mM Na2HPO4 pH 9.0, 22 °C

B1: Cg10062 (Corynebacterium glutamicum ATCC 13032) (protein)
chain: PTYTCWSQRIRISREAKQRIAEAITDAHHELAHAPKYLVQVIFNEVEPDSYFIAAQSASENHIWVQATIRSGRTEKQKEELLLRLTQEIALILGIPNEEVWVYITEIPGSNMTEYGRLLMEPGEEEKWFNSLPEGLRERLTELEGSSE
In the case of B1, the Km [1] is reported as 6.2 ± 0.75 mM, the kcat [1] is reported as 0.33 ± 0.03 s⁻¹ and the kcat/Km [1] is reported as 50 M⁻¹ s⁻¹. It also gave a Km (purified protein [2]) of 78 ± 36 mM, a kcat (purified protein [2]) of 0.06 ± 0.01 s⁻¹ and a kcat/Km (purified protein [2]) of 0.8 M⁻¹ s⁻¹. It also gave a Km (purified protein [3]) of 19 ± 1 mM, a kcat (purified protein [3]) of 3.5 ± 1.1 s⁻¹ and a kcat/Km (purified protein [3]) of 184 M⁻¹ s⁻¹.

B2: CaaD (trans-3-chloroacrylic acid dehalogenase) (Pseudomonas pavonaceae) (protein)
chain 1: PMISCDMRYGRTDEQKRALSAGLLRVISEATGEPRENIFFVIREGSGINFVEHGEHLPDYVPGNANDKALIAKLK
chain 2: PFIECHIATGLSVARKQQLIRDVIDVTNKSIGSDPKIINVLLVEHAEANMSISGRIHGEAASTERTPAVS
B2 gave a Km (purified protein [2]) of 0.028 ± 0.003 mM, a kcat (purified protein [2]) of 1.9 ± 0.6 s⁻¹ and a kcat/Km (purified protein [2]) of 68000 M⁻¹ s⁻¹.

— paper PMC2659011
